Measured values: article PMC7086702

Target: Groundnut bud necrosis virus nucleocapsid (N) protein, full-length, hexa-histidine-tagged (Groundnut bud necrosis virus, strain GBNV-To(K))
Assay: SEC

## Groundnut bud necrosis virus nucleocapsid (N) protein, full-length, hexa-histidine-tagged (natural protein)
  stoichiometry N: 4
